{
  "source": "paper PMC6154995",
  "about": "“Heme-dependent Inactivation of 5-Aminolevulinate Synthase from Caulobacter crescentus” (Scientific Reports, 2018)",
  "proteins": {"B1": {"name": "5-aminolevulinate synthase from Caulobacter crescentus, PLP form (yellow form) (enzyme)", "chain": "not shown", "modifications": "pyridoxal 5'-phosphate (PLP), predicted to bind to the ε-amino group of Lys248", "notes": "5-aminolevulinate synthase (ALAS) of Caulobacter crescentus CB15, gene CC_1355, 408 residues, predicted mass 44,273 Da; gene PCR-amplified from genomic DNA; Same polypeptide as m2; also called cALAS; C. crescentus ALAS; source: E. coli BL21(DE3) pLysS, pET-28b, purified (HisTrap FF Crude, Mono Q; first, yellow eluate of the anion exchange column)"}, "B2": {"name": "5-aminolevulinate synthase from Caulobacter crescentus, heme form (red form) (enzyme)", "chain": "not shown", "notes": "5-aminolevulinate synthase (ALAS) of Caulobacter crescentus CB15, gene CC_1355, 408 residues, predicted mass 44,273 Da; gene PCR-amplified from genomic DNA; Same polypeptide as m1; also called cALAS; red form of cALAS; source: E. coli BL21(DE3) pLysS, pET-28b, purified (HisTrap FF Crude, Mono Q; second, reddish-brown eluate of the anion exchange column)"}},
  "biological_target": "the molecule itself",
  "experiment": "SEC + native gel or EMSA; data not shown; purified yellow (PLP) and red (heme) fractions of recombinant cALAS; oligomeric state in solution; conditions not given",
  "data": [
    {"protein": "B1", "values": [
      {"measurement": "stoichiometry N", "result": 2}
    ]},
    {"protein": "B2", "values": [
      {"measurement": "stoichiometry N", "result": 2}
    ]}
  ]
}
